Data: PMC3144408 (The Journal of Cell Biology, 2011)
One block for each molecule: values may come before it. Ends that are not written are not given here.

What was measured:
MDA-MB-231 cells = test: Colocalization of internalized β1-integrin with endogenous p120RasGAP; assay type: cell-based, human; details: integrin trafficking 45 min in the presence of primaquine; Pearson's correlation coefficient, n = 27 cells
[1] = biological target: T1, GST-p120RasGAP GAP domain (p120 GAP WT, residues 714–1047) (human, UniProt P20936 714-1047); test: pull-down
T1 sequence (looked up): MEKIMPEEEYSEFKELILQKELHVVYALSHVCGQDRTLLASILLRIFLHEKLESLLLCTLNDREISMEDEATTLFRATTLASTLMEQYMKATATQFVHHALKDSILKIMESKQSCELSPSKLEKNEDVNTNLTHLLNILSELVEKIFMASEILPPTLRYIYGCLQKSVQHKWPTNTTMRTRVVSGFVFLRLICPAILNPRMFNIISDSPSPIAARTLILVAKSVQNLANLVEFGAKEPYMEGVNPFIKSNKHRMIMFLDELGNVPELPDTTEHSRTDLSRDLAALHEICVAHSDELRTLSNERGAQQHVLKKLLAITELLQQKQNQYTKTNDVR

[2] = biological target: T2, Rab21 (residues 15–225), recombinant, as used in the affinity and competition measurements (human, UniProt Q9UL25 15-225); test: fluorescence polarisation
T2 sequence (looked up): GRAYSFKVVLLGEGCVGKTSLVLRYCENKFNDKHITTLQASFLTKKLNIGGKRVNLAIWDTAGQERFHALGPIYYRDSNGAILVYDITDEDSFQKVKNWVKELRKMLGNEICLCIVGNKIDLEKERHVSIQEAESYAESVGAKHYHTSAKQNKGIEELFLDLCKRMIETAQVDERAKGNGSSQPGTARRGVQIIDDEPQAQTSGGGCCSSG

[3] = biological target: T3, p120RasGAP GAP domain R789A, recombinant, as used in fluorescence polarisation (human, UniProt P20936 714-1047, R789A); test: fluorescence polarisation
T3 sequence (looked up): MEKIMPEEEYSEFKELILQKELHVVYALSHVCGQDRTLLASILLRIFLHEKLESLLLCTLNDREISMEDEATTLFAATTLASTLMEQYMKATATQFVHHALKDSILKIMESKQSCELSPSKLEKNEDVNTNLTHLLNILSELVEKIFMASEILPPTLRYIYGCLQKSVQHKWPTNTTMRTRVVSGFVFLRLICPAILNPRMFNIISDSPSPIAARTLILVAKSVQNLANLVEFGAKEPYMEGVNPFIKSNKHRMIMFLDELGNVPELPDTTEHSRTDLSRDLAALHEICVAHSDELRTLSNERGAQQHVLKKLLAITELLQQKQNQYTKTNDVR

Molecule: COc1cc(NC(C)CCCN)c2ncccc2c1 (stereo not shown) [primaquine]
- overlap (colocalization) of internalized β1-integrins with p120RasGAP (MDA-MB-231 cells): significantly increased the overlap of integrins with p120RasGAP

- binding result [1]: binds
Molecule: WKIGFFKRPLKKKMEKRPLKKKMEK (also: biotinylated, end not given here) [biotinylated α1-integrin cytoplasmic domain peptide]

- Kd [2]: 28 µM
- binding result [3]: binds
Molecule: WKLGFFKRKYEKM (also: EDANS fluorophore coupled, end not given here) [EDANS-conjugated α2-integrin cytoplasmic domain peptide (α2-cons, wild type)]
